According to patent US6663869B1, “Polyoxime compounds and their preparation” (Gryphon Therapeutics, Inc., priority 1993, dated 2003):
The star is where a group is joined. aminooxyacetyl = NOCC(=O)*

Assays:
[1] = system: mouse melanoma cells; conditions: even when modified at the alpha-amino group and when linked as a homodimer (Bagutti et al. 1992); cited from earlier work
[2] = storage stability as a powder at −20° C.; format: physicochemical
Experimental: Solvent was removed by vacuum centrifugation (Speed-Vac; Savant Instruments) without heating. […] Similar methods were used to prepare octa-GXL-baseplate (SEQ ID NO: 9).
The hexa-AOA-baseplate product (SEQ ID NO: 5) eluted during the isocratic elution at 5% B. The product eluted as a single peak on analytical RP-HPLC. The mass was determined by ESI-MS to be 1325.49+/−0.38 daltons as compared to the calculated mass of 1325.4 daltons. […] The storage vial was kept tightly sealed and volatile aldehydes were excluded.
Following solvent removal by vacuum centrifugation, the AOA-TCTP sample (SEQ ID NO: 4) was characterized by ESI-MS. The molecular weight of the sample was determined to be 1542.57+/−1.14 daltons, as compared to the expected value of 1541.73 daltons. The reaction yielded 120 mg AOA-TCTP from 1.3 g. AOA-polypeptidyl resin.

[3] = system: B16-F1 melanoma cells; assay: in situ melanin assay (Bagutti 1992); format: cell-based; conditions: relative to full-length hormone
Experimental: The biological activity of MSH can be measured, for example, with an in situ melanin assay in which the peptide is tested for stimulation of B16-F1 melanoma cells (Bagutti 1992).
The binding and potency of some alpha-melanocyte stimulating hormone analog polyoximes were determined. Relative binding in the binding assay using mouse melanoma cells (Bagutti (1992)) refers to the average dissociation constant (Kd) for full-length natural hormone divided by the Kd for our oxime analog. Relative potency in the melanin assay (Bagutti (1992)) refers to the ratio of the concentrations (giving 50% of maximum effect) of full-length hormone and that of analog. Results with the analog of alpha-MSH, Nle-Asp-His-(D)Phe-Arg-Trp-Lys-amide, are provided.

[4] = format: physicochemical; conditions: pH 7

Row | Substance | storage stability [2] | also measured
1 | Nle-Asp-His-(D-Phe)-Arg-Trp-Lys |  | binding to melanoma cells [1]: binds to melanoma cells
2 | NH2OCH2CO-ELGGGPGAGSLQPLALEGSLQKR-OH (aminooxyacetyl-ELGGGPGAGSLQPLALEGSLQKR-OH; SMILES CC(C)C[C@H](NC(=O)[C@H](C)NC(=O)[C@H](CC(C)C)NC(=O)[C@@H]1CCCN1C(=O)[C@H](CCC(N)=O)NC(=O)[C@H](CC(C)C)NC(=O)[C@H](CO)NC(=O)CNC(=O)[C@H](C)NC(=O)CNC(=O)[C@@H]1CCCN1C(=O)CNC(=O)CNC(=O)CNC(=O)[C@H](CC(C)C)NC(=O)[C@H](CCC(=O)O)NC(=O)CON)C(=O)N[C@@H](CCC(=O)O)C(=O)NCC(=O)N[C@@H](CO)C(=O)N[C@@H](CC(C)C)C(=O)N[C@@H](CCC(N)=O)C(=O)N[C@@H](CCCCN)C(=O)N[C@@H](CCCNC(=N)N)C(=O)O) [AOA-Pep C COSM] | stable for at least several months | 
3 | Ser-TCTP precursor COSM: TCTP 12-mer peptide with added N-terminal serine, SEQ ID NO: 2 (SKLEEQRPEVKG) | stable indefinitely | 
4 | OCH—CO-Gly3-[Lys(COCHO)]5-Gly-OH [hexa-GXL-baseplate] | stable for at least several weeks | 
5 | control monooxime: aminooxyacetyl Nle-Asp-His-(D)Phe-Arg-Trp-Lys-amide oximated with acetaldehyde |  | relative potency (ratio of concentrations giving 50% of maximum effect of full-length hormone and analog) [3]: 1.78
6 | acetyl-Asp-Cys-Thr-Leu-Ile-Asp-Ala-Leu-Leu-Gly-Asp-Pro-His-amide (XCTLIDALLGDPX; N-terminal acetyl, C-terminal amide) |  | oxidized to the disulfide dimer [4]: about 30%
7 | NH2OCH2CO-Lys-Leu-Glu-Glu-Gln-Arg-Pro-Glu-Arg-Val-Lys-Gly-OH (aminooxyacetyl-KLEEQRPERVKG-OH; SMILES CC(C)C[C@H](NC(=O)[C@H](CCCCN)NC(=O)CON)C(=O)N[C@@H](CCC(=O)O)C(=O)N[C@@H](CCC(=O)O)C(=O)N[C@@H](CCC(N)=O)C(=O)N[C@@H](CCCNC(=N)N)C(=O)N1CCC[C@H]1C(=O)N[C@@H](CCC(=O)O)C(=O)N[C@@H](CCCNC(=N)N)C(=O)N[C@H](C(=O)N[C@@H](CCCCN)C(=O)NCC(=O)O)C(C)C) [AOA-TCTP COSM] | stable for at least several months | 
